The results in this text go back to publication PMC4958977, “Revisiting the mechanism of coagulation factor XIII activation and regulation from a structure/functional perspective” (Scientific Reports, 2016).

The data set deals with the molecule itself. Nature of the data set: SEC; 25 ug purified FXIIIA2B2 incubated with 46.2 U/mL thrombin and 25 mM CaCl2, 20 mM Tris, 120 mM NaCl, pH 7.4, 60 minutes at 30 degrees; Superdex 200 PC 3.2/30; peaks checked by native PAGE and mass spectrometry. For orientation: SEC sorts molecules by how far they enter the pores of the column.

B1: coagulation factor XIII B subunit (natural protein, human, UniProt P05160 21-661, looked up)
chain: EEKPCGFPHVENGRIAQYYYTFKSFYFPMSIDKKLSFFCLAGYTTESGRQEEQTTCTTEGWSPEPRCFKKCTKPDLSNGYISDVKLLYKIQENMRYGCASGYKTTGGKDEEVVQCLSDGWSSQPTCRKEHETCLAPELYNGNYSTTQKTFKVKDKVQYECATGYYTAGGKKTEEVECLTYGWSLTPKCTKLKCSSLRLIENGYFHPVKQTYEEGDVVQFFCHENYYLSGSDLIQCYNFGWYPESPVCEGRRNRCPPPPLPINSKIQTHSTTYRHGEIVHIECELNFEIHGSAEIRCEDGKWTEPPKCIEGQEKVACEEPPFIENGAANLHSKIYYNGDKVTYACKSGYLLHGSNEITCNRGKWTLPPECVENNENCKHPPVVMNGAVADGILASYATGSSVEYRCNEYYLLRGSKISRCEQGKWSSPPVCLEPCTVNVDYMNRNNIEMKWKYEGKVLHGDLIDFVCKQGYDLSPLTPLSELSVQCNRGEVKYPLCTRKESKGMCTSPPLIKHGVIISSTVDTYENGSSVEYRCFDHHFLEGSREAYCLDGMWTTPPLCLEPCTLSFTEMEKNNLLLKWDFDNRPHILHGEYIEFICRGDTYPAELYITGSILRMQCDRGQLKYPRCIPRQSTLSYQEPLRT
notes: human coagulation factor XIII B subunit from plasma, ten Sushi domains; 80 kDa; also called FXIIIB; FXIIIB2; source: purified as FXIIIA2B2 from plasma concentrate Fibrogammin P (CSL Behring), gel filtration on Superdex 200
Consider B1, for which the binding result is “binds”.
